Test results: US20230106247A1 (L AND L BIO CO LTD NINGBO CHINA, published 2023)

What was measured:
human Sirpα-V1-his [1] = target: T1, human Sirpα-V1-his (human, UniProt P78324 31-373); test: ELISA
T1 construct: range 31-373; Bought (Sino Biological 11612-H08H) or expressed in-house; also called hSirpα-V1; hSirpα-V1-his

human Sirpα-V1-his [2] = target: T1, human Sirpα-V1-his; test: blocking ELISA, competitor CD47-hFc
Experimental: (§1) The recombinant proteins such as human Sirpα-V1-hFc/Sirpα-V1-his were diluted to concentrations of 5 μg/mL or 2 μg/mL respectively with a PBS buffer at pH 7.4, and then added into a 96-well ELISA plate (Corning, CLS3590-100EA) at a volume of 50 μL/well, and placed in an incubator at 37° C. for 2 hours. After the liquid was discarded, the wells were added with a blocking solution of 5% skimmed milk (skimmed milk powder available from Bright Dairy) diluted with PBS at 230 μL/well, and incubated in an incubator at 37° C. for 3 hours, or placed overnight at 4° C. (for 16-18 hours) for blocking. […] The plate was washed for 5 times, added with 50 μL/well of streptavidin-HRP (GenScript, M00091) or anti-his-HRP secondary antibody (GenScript, A00612) diluted at 1:1000, incubated at 37° C. for 1 hour, and then washed with PBST for 5 times. Each well was added with 50 μL of TMB (Surmodic, Cat #: TTMB-1000-01) for color development, and added with 50 μL/well of 1 M H₂SO₄ to stop the reaction. The readings on a microplate reader (MultiskanGO Thermo, Model 51119200) were subjected to data analysis by GraphPad prism 5.

human Sirpα-V1-hFc = target: T2, human Sirpα-V1-hFc (human, UniProt P78324 31-373); test: blocking ELISA, competitor CD47-his
T2 construct: range 31-373; also called hSirpα (dimer); hSirpα-V1-hFc (dimer); not shown: human IgG1 Fc region at the C-terminus
Experimental: as §1

EC50 (human Sirpα-V1-his [1])	IC50 (human Sirpα-V1-his [2])	IC50 (human Sirpα-V1-hFc)	Binder
0.057 nM	9.1 nM	4.75 nM	humanized antibody mab14-h14 (antibody, human IgG4 S228P, kappa, V domains shown, hIgG4, κ) VH: QVQLVQSGAEVKKPGASVKVSCKASGYNFNIYWINWVRQAPGQGLEWIGNIYPSSISTNYNEKFKTRATLTVDKSTSTVYMELSSLRSEDTAVYYCARSEGTYYGGRYEGDWFGYWGQGTLVTVSS VL: DIQMTQSPSSLSASVGDRVTITCRASQDIRNYLNWYQQKPGGTPKLLIYFTSTLHSGVPSRFSGSGSGTDYTLTISSLQPEDFATYYCQQGNTLPWTFGGGTKVEIKR
0.061 nM	8.47 nM	8.99 nM	humanized antibody mab14-h5 (antibody, human IgG4 S228P, kappa, V domains shown, hIgG4, κ) VH: QVQLVQSGAEVKKPGASVKVSCKASGYNFNIYWINWVRQAPGQGLEWIGNIYPSSISTNYNEKFKTRATLTVDKSTSTVYMELSSLRSEDTAVYYCARSEGTYYGGRYEGDWFGYWGQGTLVTVSS VL: DIQMTQSPSSLSASVGDRVTITCRASQDIRNYLNWYQQKPGGTVKLLIYFTSTLHSGVPSRFSGSGSGTDYTLTISSLQPEDFATYYCQQGNTLPWTFGGGTKVEIKR
0.067 nM			humanized antibody mab14-h8 (antibody, human IgG4 S228P, kappa, V domains shown, hIgG4, κ) VH: QVQLVQSGAEVKKPGASVKVSCKASGYNFNIYWINWVKQAPGQGLEWIGNIYPSSISTNYNEKFKTKATLTVDKSTSTVYMEFSSLRSEDTAVYYCARSEGTYYGGRYEGDWFGYWGQGTLVTVSS VL: DIQMTQSPSSLSASVGDRVTITCRASQDIRNYLNWYQQKPGGTPKLLIYFTSTLHSGVPSRFSGSGSGTDFTLTISSLQPEDFATYYCQQGNTLPWTFGGGTKVEIKR
0.062 nM			humanized antibody mab14-h9 (antibody, human IgG4 S228P, kappa, V domains shown, hIgG4, κ) VH: QVQLVQSGAEVKKPGASVKVSCKASGYNFNIYWINWVKQAPGQGLEWIGNIYPSSISTNYNEKFKTKATLTVDKSTSTVYMEFSSLRSEDTAVYYCARSEGTYYGGRYEGDWFGYWGQGTLVTVSS VL: DIQMTQSPSSLSASVGDRVTITCRASQDIRNYLNWYQQKPGGAPKLLIYFTSTLHSGVPSRFSGSGSGTDYTLTISSLQPEDFATYYCQQGNTLPWTFGGGTKVEIKR
0.092 nM	8.08 nM	3.49 nM	humanized antibody mab14-h12 (antibody, human IgG4 S228P, kappa, V domains shown, hIgG4, κ) VH: QVQLVQSGAEVKKPGASVKVSCKASGYNFNIYWINWVRQAPGQGLEWIGNIYPSSISTNYNEKFKTRATLTVDKSTSTVYMELSSLRSEDTAVYYCARSEGTYYGGRYEGDWFGYWGQGTLVTVSS VL: DIQMTQSPSSLSASVGDRVTITCRASQDIRNYLNWYQQKPGGTPKLLIYFTSTLHSGVPSRFSGSGSGTDFTLTISSLQPEDFATYYCQQGNTLPWTFGGGTKVEIKR
0.088 nM			humanized antibody mab14-h4 (antibody, human IgG4 S228P, kappa, V domains shown, hIgG4, κ) VH: QVQLVQSGAEVKKPGASVKVSCKASGYNFNIYWINWVRQAPGQGLEWIGNIYPSSISTNYNEKFKTRATLTVDTSTSTVYMELSSLRSEDTAVYYCARSEGTYYGGRYEGDWFGYWGQGTLVTVSS VL: DIQMTQSPSSLSASVGDRVTITCRASQDIRNYLNWYQQKPGGTVKLLIYFTSTLHSGVPSRFSGSGSGTDYTLTISSLQPEDFATYYCQQGNTLPWTFGGGTKVEIKR
0.081 nM			humanized antibody mab14-h7 (antibody, human IgG4 S228P, kappa, V domains shown, hIgG4, κ) VH: QVQLVQSGAEVKKPGASVKVSCKASGYNFNIYWINWVKQAPGQGLEWIGNIYPSSISTNYNEKFKTKATLTVDTSTSTVYMELSSLRSEDTAVYYCARSEGTYYGGRYEGDWFGYWGQGTLVTVSS VL: DIQMTQSPSSLSASVGDRVTITCRASQDIRNYLNWYQQKPGGTVKLLIYFTSTLHSGVPSRFSGSGSGTDYTLTISSLQPEDFATYYCQQGNTLPWTFGGGTKVEIKR
0.095 nM			humanized antibody mab14-h6 (antibody, human IgG4 S228P, kappa, V domains shown, hIgG4, κ) VH: QVQLVQSGAEVKKPGASVKVSCKASGYNFNIYWINWVKQAPGQGLEWIGNIYPSSISTNYNEKFKTRATLTVDTSTSTVYMELSSLRSEDTAVYYCARSEGTYYGGRYEGDWFGYWGQGTLVTVSS VL: DIQMTQSPSSLSASVGDRVTITCRASQDIRNYLNWYQQKPGGTVKLLIYFTSTLHSGVPSRFSGSGSGTDYTLTISSLQPEDFATYYCQQGNTLPWTFGGGTKVEIKR
0.077 nM	7.37 nM	5.13 nM	humanized antibody mab14-h15 (antibody, human IgG4 S228P, kappa, V domains shown, hIgG4, κ) VH: QVQLVQSGAEVKKPGASVKVSCKASGYNFNIYWINWVRQAPGQGLEWIGNIYPSSISTNYNEKFKTRATLTVDKSTSTVYMELSSLRSEDTAVYYCARSEGTYYGGRYEGDWFGYWGQGTLVTVSS VL: DIQMTQSPSSLSASVGDRVTITCRASQDIRNYLNWYQQKPGKTPKLLIYFTSTLHSGVPSRFSGSGSGTDYTLTISSLQPEDFATYYCQQGNTLPWTFGGGTKVEIKR
0.073 nM			humanized antibody mab14-h2 (antibody, human IgG4 S228P, kappa, V domains shown, hIgG4, κ) VH: QVQLVQSGAEVKKPGASVKVSCKASGYNFNIYWINWVKQAPGQGLEWIGNIYPSSISTNYNEKFKTKATLTVDKSTSTVYMEFSSLRSEDTAVYYCARSEGTYYGGRYEGDWFGYWGQGTLVTVSS VL: DIQMTQSPSSLSASVGDRVTITCRASQDIRNYLNWYQQKPGGTVKLLIYFTSTLHSGVPSRFSGSGSGTDYTLTISSLQPEDFATYYCQQGNTLPWTFGGGTKVEIKR
0.073 nM			humanized antibody mab14-h11 (antibody, human IgG4 S228P, kappa, V domains shown, hIgG4, κ) VH: QVQLVQSGAEVKKPGASVKVSCKASGYNFNIYWINWVKQAPGQGLEWIGNIYPSSISTNYNEKFKTKATLTVDKSTSTVYMEFSSLRSEDTAVYYCARSEGTYYGGRYEGDWFGYWGQGTLVTVSS VL: DIQMTQSPSSLSASVGDRVTITCRASQDIRNYLNWYQQKPGKTPKLLIYFTSTLHSGVPSRFSGSGSGTDYTLTISSLQPEDFATYYCQQGNTLPWTFGGGTKVEIKR
0.068 nM			humanized antibody mab14-h10 (antibody, human IgG4 S228P, kappa, V domains shown, hIgG4, κ) VH: QVQLVQSGAEVKKPGASVKVSCKASGYNFNIYWINWVKQAPGQGLEWIGNIYPSSISTNYNEKFKTKATLTVDKSTSTVYMEFSSLRSEDTAVYYCARSEGTYYGGRYEGDWFGYWGQGTLVTVSS VL: DIQMTQSPSSLSASVGDRVTITCRASQDIRNYLNWYQQKPGGTPKLLIYFTSTLHSGVPSRFSGSGSGTDYTLTISSLQPEDFATYYCQQGNTLPWTFGGGTKVEIKR
0.089 nM	9.56 nM	5.31 nM	humanized antibody mab14-h13 (antibody, human IgG4 S228P, kappa, V domains shown, hIgG4, κ) VH: QVQLVQSGAEVKKPGASVKVSCKASGYNFNIYWINWVRQAPGQGLEWIGNIYPSSISTNYNEKFKTRATLTVDKSTSTVYMELSSLRSEDTAVYYCARSEGTYYGGRYEGDWFGYWGQGTLVTVSS VL: DIQMTQSPSSLSASVGDRVTITCRASQDIRNYLNWYQQKPGGAPKLLIYFTSTLHSGVPSRFSGSGSGTDYTLTISSLQPEDFATYYCQQGNTLPWTFGGGTKVEIKR
0.103 nM			humanized antibody mab14-h3 (antibody, human IgG4 S228P, kappa, V domains shown, hIgG4, κ) VH: QVQLVQSGAEVKKPGASVKVSCKASGYNFNIYWINWVRQAPGQGLEWMGNIYPSSISTNYNEKFKTRATLTVDTSTSTVYMELSSLRSEDTAVYYCARSEGTYYGGRYEGDWFGYWGQGTLVTVSS VL: DIQMTQSPSSLSASVGDRVTITCRASQDIRNYLNWYQQKPGGTVKLLIYFTSTLHSGVPSRFSGSGSGTDYTLTISSLQPEDFATYYCQQGNTLPWTFGGGTKVEIKR
0.148 nM			humanized antibody mab14-h1 (antibody, human IgG4 S228P, kappa, V domains shown, hIgG4, κ) VH: QVQLVQSGAEVKKPGASVKVSCKASGYNFNIYWINWVRQAPGQGLEWMGNIYPSSISTNYNEKFKTRVTMTRDTSTSTVYMELSSLRSEDTAVYYCARSEGTYYGGRYEGDWFGYWGQGTLVTVSS VL: DIQMTQSPSSLSASVGDRVTITCRASQDIRNYLNWYQQKPGKAPKLLIYFTSTLHSGVPSRFSGSGSGTDFTLTISSLQPEDFATYYCQQGNTLPWTFGGGTKVEIKR
